# ± gives the standard deviation of the averaged measurements.
# System: Saccharomyces cerevisiae
# Assay: protein stability index of tFT-peptide fusion (C-terminal peptide) (PSI (0-1 scale)); higher = more stable (slower turnover)
# Settings: genetic background: wild type; temperature: 30 C
# Experimental: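 MPS profiling in S. cerevisiae of the yeast C-terminome library: the last 12 aa of each annotated ORF are fused to the C-terminus of a sfGFP-mCherry timer, after a GGGS linker. Cells are FACS-sorted into 8 mCherry/sfGFP bins and deep-sequenced. PSI runs from 0 (unstable) to 1 (stable); wild type and das1Δ backgrounds, two technical replicates each.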
row,Sequence,protein stability index
1,ERCSLQNPFYSI [YNR066C C-terminal 12 aa],0.696 ± 0.0016
2,ERTSLLSGETQT [YPQ2 C-terminal 12 aa],0.684 ± 0.014
3,ESEYREQQQNPQ [SHQ1 C-terminal 12 aa],0.686 ± 0.085
4,ESFVECFESFIE [PBI1 C-terminal 12 aa],0.682 ± 0.033
5,ESGPSIVHHKCF [ACT1 C-terminal 12 aa],0.6963 ± 0.0026
6,ESTHKEAMGEKN [MNN5 C-terminal 12 aa],0.675 ± 0.016
7,EVEKIVKKVLKD [DBP5 C-terminal 12 aa],0.6553 ± 0.0058
8,EWTKLYAKKKPE [UBC13 C-terminal 12 aa],0.711 ± 0.01
9,EYEYEDDGLFER [GCD1 C-terminal 12 aa],0.692 ± 0.029
10,FEGKPLYQMLKI [YAL047W-A C-terminal 12 aa],0.551 ± 0.011
11,FFFLLTSLLSPF [LCL1 C-terminal 12 aa],0.592 ± 0.0065
12,FFKQAEQEQADV [PRP11 C-terminal 12 aa],0.698 ± 0.0072
13,FFRYFTFSSSYW [YDR464C-A C-terminal 12 aa],0.661 ± 0.022
14,FFSKKRPNIDSK [YOL037C C-terminal 12 aa],0.684 ± 0.058
15,FGTWEIVIRLLS [RIM2 C-terminal 12 aa],0.123 ± 0.018
16,FILKAKLEWIKW [YOL075C C-terminal 12 aa],0.578 ± 0.11
17,FKQSEITLYRTR [PEP8 C-terminal 12 aa],0.722 ± 0.11
18,FKSGQNMLKDEL [SCJ1 C-terminal 12 aa],0.648 ± 0.0073
19,FLFHCVHLLLSG [YDR535C C-terminal 12 aa],0.4909 ± 0.003
20,FLRNFKDNRFLQ [YOR121C C-terminal 12 aa],0.6968 ± 0.004
21,FPLLMSEIEDFR [YNL067W-A C-terminal 12 aa],0.695 ± 0.033

row,Sequence,protein stability index
1,FPRNLAKSVTVE [GFA1 C-terminal 12 aa],0.593 ± 0.011
2,FQVVSKKKGRKH [SMY2 C-terminal 12 aa],0.72 ± 0.033
3,FSRASCITVWLV [YPR160C-A C-terminal 12 aa],0.228 ± 0.027
4,FSSEFSSDPTVN [YJL206C C-terminal 12 aa],0.724 ± 0.034
5,FSVCCKDATEVS [YHR070C-A C-terminal 12 aa],0.682 ± 0.031
6,FTLVDYDKKFHK [ADH7 C-terminal 12 aa],0.78 ± 0.087
7,FTNQKLAKLEVR [YMR141C C-terminal 12 aa],0.591 ± 0.0041
8,FVLIVLGLLTYL [GET2 C-terminal 12 aa],0.38 ± 0.019
9,FVSHSRFFNRGT [VPS53 C-terminal 12 aa],0.6958 ± 0.0033
10,FYIDKFQVREVK [SUC2 C-terminal 12 aa],0.683 ± 0.038
11,GAAIAAGVAFLF [YCL048W-A C-terminal 12 aa],0.538 ± 0.021
12,GAGIMALIGKWA [ZRT1 C-terminal 12 aa],0.661 ± 0.022
13,GALLAGAAALLL [CCW12 C-terminal 12 aa],0.698 ± 0.019
14,GAQIISLDEDVF [GIP1 C-terminal 12 aa],0.716 ± 0.037
15,GEGESIDDKLTD [STB1 C-terminal 12 aa],0.733 ± 0.054
16,GESISMLFEHGW [PRS5 C-terminal 12 aa],0.7458 ± 0.0051
17,GESVDKVTKNEQ [YPR114W C-terminal 12 aa],0.662 ± 0.014
18,GETDSKIKYKYR [SND2 C-terminal 12 aa],0.573 ± 0.026
19,GFASLIKDFKKK [NET1 C-terminal 12 aa],0.685 ± 0.043
20,GGGYLTSLKLFI [YOR041C C-terminal 12 aa],0.681 ± 0.031
21,GGNLPQGYFYTQ [GTS1 C-terminal 12 aa],0.69615 ± 0.00011

row,Sequence,protein stability index
1,GIRRIVHEPLGI [MTE1 C-terminal 12 aa],0.729 ± 0.045
2,GIVRHLIDSVKL [ACS1 C-terminal 12 aa],0.6884 ± 0.0041
3,GKGAIDGFFKRK [RNH202 C-terminal 12 aa],0.6575 ± 0.004
4,GLEFHDVEDRIA [PEX18 C-terminal 12 aa],0.702 ± 0.013
5,GLKGLFPTSYCK [BZZ1 C-terminal 12 aa],0.732 ± 0.02
6,GLQKKNIKIHGF [SUI1 C-terminal 12 aa],0.684 ± 0.074
7,GQGTTLGGPFFP [ALB1 C-terminal 12 aa],0.7215 ± 0.0052
8,GRENGDVNIWAV [MDV1 C-terminal 12 aa],0.715 ± 0.0099
9,GRYAQIHEKHIE [ASN1 C-terminal 12 aa],0.691 ± 0.089
10,GSAAVAGALLLL [YNL190W C-terminal 12 aa],0.664 ± 0.023
11,GSSLITEGVYVI [NSE1 C-terminal 12 aa],0.683 ± 0.028
12,GSVPANWNWSSF [PIB2 C-terminal 12 aa],0.699 ± 0.048
13,GTVCYGMIEIFF [VTC5 C-terminal 12 aa],0.616 ± 0.013
14,GVITPVYFPLRW [YDR215C C-terminal 12 aa],0.715 ± 0.017
15,GYACPTHYLREM [MXR1 C-terminal 12 aa],0.7169 ± 0.0063
16,HEKRTEEVARYA [YGR026W C-terminal 12 aa],0.6604 ± 0.0066
17,HEVDTEKINIFQ [YML003W C-terminal 12 aa],0.697 ± 0.026
18,HGGNVSSSTYQA [GND1 C-terminal 12 aa],0.696 ± 0.029
19,HGNDFLQHVNRK [RSM22 C-terminal 12 aa],0.7065 ± 0.0016
20,HIFYFVLSYSEW [YIL030W-A C-terminal 12 aa],0.192 ± 0.0083
21,HIREDYLRQFGN [KTR5 C-terminal 12 aa],0.616 ± 0.022

row,Sequence,protein stability index
1,HKSGKLLLPVYI [ECO1 C-terminal 12 aa],0.619 ± 0.03
2,HLQRCLSRGARR [SGF11 C-terminal 12 aa],0.759 ± 0.039
3,HNILDRCLKRLS [RKM3 C-terminal 12 aa],0.716 ± 0.013
4,HNPSLWSCIFGK [SWS2 C-terminal 12 aa],0.714 ± 0.029
5,HNVCGRAFSLPL [HSL7 C-terminal 12 aa],0.677 ± 0.035
6,HQKARSSYCCIQ [XDJ1 C-terminal 12 aa],0.706 ± 0.0085
7,HRIASKIRSKLR [GIP4 C-terminal 12 aa],0.714 ± 0.03
8,HTSVKALQRMTW [CTH1 C-terminal 12 aa],0.6829 ± 0.0024
9,HWLQLKPGQPMY [MF(ALPHA)1 C-terminal 12 aa],0.6822 ± 0.0032
10,HYSPFYQLPLIF [YGR240C-A C-terminal 12 aa],0.575 ± 0.0067
11,IAPEVTYRGFIE [RIM9 C-terminal 12 aa],0.685 ± 0.03
12,IDEIYEDKWLKI [PSK2 C-terminal 12 aa],0.74 ± 0.047
13,IDLVLVVNVLSL [YCR064C C-terminal 12 aa],0.428 ± 0.0062
14,IDTWEIKFNELF [YLR287C C-terminal 12 aa],0.6954 ± 0.0012
15,IELWETFYQTNL [VPS5 C-terminal 12 aa],0.7177 ± 0.0056
16,IESTLSNKLSIN [YCR013C C-terminal 12 aa],0.674 ± 0.014
17,IFTSGSKSMKDL [ALG6 C-terminal 12 aa],0.671 ± 0.0092
18,IFVAILLRYAKI [PCA1 C-terminal 12 aa],0.228 ± 0.006
19,IFVGETIFFFLF [YDR053W C-terminal 12 aa],0.536 ± 0.018

# Source: the supplement of paper PMC10724198
